Measured values taken from PMC11250029.

Target: lavanducyanin halogenase (LvcH) (Streptomyces sp. CNZ-289)
Assay: SEC

## lavanducyanin halogenase (LvcH) (enzyme)
  stoichiometry N: 2
